The series deals with the molecule itself. Description: SEC; lysate of transfected HeLa cells (RIPA buffer) on Superdex S200 HR10/30 in hypotonic buffer (20 mM HEPES, 10 mM KCl, 1 mM MgCl2, 1 mM EDTA, 1 mM EGTA, 1 mM DTT, pH 7.5); fractions precipitated with trichloroacetic acid and blotted with anti-myc; molecular weight markers as standard.

What is called stoichiometry N is a count of units in the complex or per binding partner.

B1: human α-galactosidase (α-Gal A), wild type (enzyme, UniProt P06280 32-429, looked up)
chain: LDNGLARTPTMGWLHWERFMCNLDCQEEPDSCISEKLFMEMAELMVSEGWKDAGYEYLCIDDCWMAPQRDSEGRLQADPQRFPHGIRQLANYVHSKGLKLGIYADVGNKTCAGFPGSFGYYDIDAQTFADWGVDLLKFDGCYCDSLENLADGYKHMSLALNRTGRSIVYSCEWPLYMWPFQKPNYTEIRQYCNHWRNFADIDDSWKSIKSILDWTSFNQERIVDVAGPGGWNDPDMLVIGNFGLSWNQQVTQMALWAIMAAPLFMSNDLRHISPQAKALLQDKDVIAINQDPLGKQGYQLRQGDNFEVWERPLSGLAWAVAMINRQEIGGPRSYTIAVASLGKGVACNPACFITQLLPVKRKLGFYEWTSRLRSHINPTGTVLLQLENTMQMSLKDLL
notes: human α-galactosidase A, full-length cDNA NM_000169 cloned in pcDNA4/TO/myc-His; The vector pcDNA4/TO/myc-His may also add a His tag after the Myc tag; also called WT α-Gal; Agal; source: HeLa, transiently transfected, in lysate (RIPA buffer); not shown: Myc, C-terminal, kept
On to B1, for which the “stoichiometry N” value is 2.

The values are drawn from publication PMC4770091, “Structural hot spots for the solubility of globular proteins” (Nature Communications, 2016).
